Paper doi:10.1101/2024.05.02.592161

Target: Mx_pmut, pore-engineered Myxococcus xanthus encapsulin shell protein (Myxococcus xanthus) (UniProt Q1D6H4)
Experiment: cryo-EM structure; purified Mx_pmut co-expressed with SNAP-tag-TP cargo (T=3/T=4 sample), 4.1 mg/mL, 150 mM NaCl, 25 mM Tris pH 8.0; icosahedral symmetry imposed

- copies of cargo in a T=3 shell: 180 copies
- copies of cargo in a T=4 shell: 240 copies
Substance: SNAP-tag carrying an Mx-targeting peptide (TP) at its C-terminus
